Reference: paper PMC11965522

How the values were obtained:
Mre11;Rad50NBD [1] = biological target: T1, Mre11;Rad50NBD (Pyrococcus furiosus;Pyrococcus furiosus, UniProt Q8U1N9;P58301;P58301 1-426;1-195;709-882, |); experiment: NMR PRE
Mre11;Rad50NBD [2] = biological target: T1, Mre11;Rad50NBD; experiment: NMR CSP titration
Mre11;Rad50 full-length = Mre11;Rad50 full-length (Pyrococcus furiosus;Pyrococcus furiosus, UniProt Q8U1N9;P58301 1-426;1-882, |); experiment: fluorescence polarization
[3] = biological target: Mre11 R160E;Rad50 full-length (Pyrococcus furiosus;Pyrococcus furiosus, UniProt Q8U1N9;P58301 1-426;1-882, R160E|); experiment: fluorescence polarization
Mre11 R160E;Rad50 full-length, sequence (P58301 whole entry, stated change not applied, one chain of several): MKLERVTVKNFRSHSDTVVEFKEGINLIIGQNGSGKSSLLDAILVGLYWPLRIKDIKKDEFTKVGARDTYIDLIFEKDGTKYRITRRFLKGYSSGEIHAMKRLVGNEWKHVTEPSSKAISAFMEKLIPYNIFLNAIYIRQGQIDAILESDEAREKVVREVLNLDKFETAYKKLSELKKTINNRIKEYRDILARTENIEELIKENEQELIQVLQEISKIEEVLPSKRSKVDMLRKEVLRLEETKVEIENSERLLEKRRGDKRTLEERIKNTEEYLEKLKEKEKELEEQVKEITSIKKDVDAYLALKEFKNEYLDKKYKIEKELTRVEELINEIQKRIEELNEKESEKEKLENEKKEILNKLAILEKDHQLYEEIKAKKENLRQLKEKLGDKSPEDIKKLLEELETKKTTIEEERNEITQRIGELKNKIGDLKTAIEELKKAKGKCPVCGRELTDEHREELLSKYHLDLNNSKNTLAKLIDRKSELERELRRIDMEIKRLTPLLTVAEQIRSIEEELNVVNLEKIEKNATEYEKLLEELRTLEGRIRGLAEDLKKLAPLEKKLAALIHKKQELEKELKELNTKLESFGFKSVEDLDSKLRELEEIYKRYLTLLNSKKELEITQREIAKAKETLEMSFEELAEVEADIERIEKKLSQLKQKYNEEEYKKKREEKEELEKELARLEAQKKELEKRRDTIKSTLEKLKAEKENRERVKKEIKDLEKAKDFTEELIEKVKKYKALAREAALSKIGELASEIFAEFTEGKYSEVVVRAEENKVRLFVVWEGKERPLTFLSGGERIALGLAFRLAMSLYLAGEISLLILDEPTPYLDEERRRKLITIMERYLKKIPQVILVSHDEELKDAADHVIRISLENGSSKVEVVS

Mre11;Rad50 R833E/R834E = Mre11;Rad50 R833E/R834E (Pyrococcus furiosus;Pyrococcus furiosus, UniProt Q8U1N9;P58301 1-426;1-882, |R833E;R834E); experiment: fluorescence polarization
Mre11;Rad50 R833E/R834E, sequence (P58301 whole entry R833E/R834E, one chain of several): as the sequence (P58301 whole entry, stated change not applied, one chain of several) above, with R833E, R834E counted along it

Mre11;Rad50 S115E/S116E = Mre11;Rad50 S115E/S116E (Pyrococcus furiosus;Pyrococcus furiosus, UniProt Q8U1N9;P58301 1-426;1-882, |S115E;S116E); experiment: fluorescence polarization
Mre11;Rad50 S115E/S116E, sequence (P58301 whole entry S115E/S116E, one chain of several): as the sequence (P58301 whole entry, stated change not applied, one chain of several) above, with S115E, S116E counted along it

[4] = biological target: Mre11 K144E;Rad50 full-length (Pyrococcus furiosus;Pyrococcus furiosus, UniProt Q8U1N9;P58301 1-426;1-882, K144E|); experiment: fluorescence polarization
Mre11 K144E;Rad50 full-length, sequence (P58301 whole entry, stated change not applied, one chain of several): as the sequence (P58301 whole entry, stated change not applied, one chain of several) above

Mre11;Rad50 R868E = Mre11;Rad50 R868E (Pyrococcus furiosus;Pyrococcus furiosus, UniProt Q8U1N9;P58301 1-426;1-882, |R868E); experiment: fluorescence polarization
Mre11;Rad50 R868E, sequence (P58301 whole entry R868E, one chain of several): as the sequence (P58301 whole entry, stated change not applied, one chain of several) above, with R868E counted along it

[5] = biological target: Mre11 K111E;Rad50 full-length (Pyrococcus furiosus;Pyrococcus furiosus, UniProt Q8U1N9;P58301 1-426;1-882, K111E|); experiment: fluorescence polarization
Mre11 K111E;Rad50 full-length, sequence (P58301 whole entry, stated change not applied, one chain of several): as the sequence (P58301 whole entry, stated change not applied, one chain of several) above

[6] = biological target: Mre11 K365E;Rad50 full-length (Pyrococcus furiosus;Pyrococcus furiosus, UniProt Q8U1N9;P58301 1-426;1-882, K365E|); experiment: fluorescence polarization
Mre11 K365E;Rad50 full-length, sequence (P58301 whole entry K365E, one chain of several): as the sequence (P58301 whole entry, stated change not applied, one chain of several) above, with K365E counted along it

Mre11;Rad50 K172E = Mre11;Rad50 K172E (Pyrococcus furiosus;Pyrococcus furiosus, UniProt Q8U1N9;P58301 1-426;1-882, |K172E); experiment: fluorescence polarization
Mre11;Rad50 K172E, sequence (P58301 whole entry K172E, one chain of several): as the sequence (P58301 whole entry, stated change not applied, one chain of several) above, with K172E counted along it

Mre11;Rad50NBD [7] = biological target: T1, Mre11;Rad50NBD; experiment: NMR CSP

T1 sequence (P58301 1-195, chain 1 of 2): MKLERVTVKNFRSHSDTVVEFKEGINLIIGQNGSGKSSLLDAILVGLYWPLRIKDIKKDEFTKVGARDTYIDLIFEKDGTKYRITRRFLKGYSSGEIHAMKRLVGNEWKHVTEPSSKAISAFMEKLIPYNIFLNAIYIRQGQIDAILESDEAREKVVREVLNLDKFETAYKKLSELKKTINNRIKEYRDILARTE
T1 sequence (P58301 709-882, chain 2 of 2): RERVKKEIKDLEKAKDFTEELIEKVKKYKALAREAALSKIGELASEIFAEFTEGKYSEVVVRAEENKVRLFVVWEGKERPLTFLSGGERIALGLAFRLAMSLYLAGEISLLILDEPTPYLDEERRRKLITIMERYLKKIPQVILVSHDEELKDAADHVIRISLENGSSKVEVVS
Mre11;Rad50 full-length, sequence (P58301 whole entry, one chain of several): as the sequence (P58301 whole entry, stated change not applied, one chain of several) above

CACGCACGTAGAAGCTTTTGCTTCTACGTGCGTGAC (structured_DNA, phosphorothioate at nt 2) [hairpin 2S]: binds (Mre11;Rad50NBD [1]).

CACGCACGTAGAAGCTTTTGCTTCTACGTGCGTGAC (structured_DNA, phosphorothioate at nt 24) [hairpin 24S]: binds (Mre11;Rad50NBD [1]).

CACGCACGTAGAAGCTTTTGCTTCTACGTGCGTGAC (structured_DNA, phosphorothioate at nt 30) [hairpin 30S]: binds (Mre11;Rad50NBD [1]).

CACGCACGTAGAAGCTTTTGCTTCTACGTGCGTGAC (structured_DNA, phosphorothioate at nt 17) [hairpin 17S]: binds (Mre11;Rad50NBD [1]).

CACGCACGTAGAAGCTTTTGCTTCTACGTGCGTGAC (structured_DNA, phosphorothioate at nt 36) [hairpin 36S]: binds (Mre11;Rad50NBD [1]).

For CACGCACGTAGAAGCTTTTGCTTCTACGTGCGTGAC (structured_DNA) [15-bp hairpin DNA], the Kd (Mre11;Rad50NBD [2]) was roughly 5400 nM.

CACGCACGTAGAAGCTTTTGCTTCTACGTGCGTGAC (structured_DNA, phosphorothioate at nt 6) [hairpin 6S]: binds (Mre11;Rad50NBD [1]).

B1: 40-mer dsDNA (dsDNA)
DNA 1: GTGTTCGGACTCTGCCTCAAGACGGTAGTCAACGTGCTTG
DNA 2: CAAGCACGTTGACTACCGTCTTGAGGCAGAGTCCGAACAC
With B1 the Kd (Mre11;Rad50 full-length) was 590 ± 50 nM, the Kd [3] was 960 ± 60 nM and the Kd (Mre11;Rad50 R833E/R834E) was 1080 ± 130 nM. For the same binder, the Kd (Mre11;Rad50 S115E/S116E) was 580 ± 60 nM, the Kd [4] was 2120 ± 420 nM and the Kd (Mre11;Rad50 R868E) was 750 ± 70 nM. The Kd [5] was 1070 ± 110 nM, the Kd [6] was 710 ± 50 nM and the Kd (Mre11;Rad50 K172E) was 580 ± 30 nM.

B2: 50-bp dsDNA (dsDNA)
DNA 1: CTGCAGGGTTTTTGTTCCAGTCTGTAGCACTGTGTAAGACAGGCCAGATG
DNA 2: CATCTGGCCTGTCTTACACAGTGCTACAGACTGGAACAAAAACCCTGCAG
B2: binds (Mre11;Rad50NBD [7]).
